Results on 1 molecule are retold here after US20140073563A1.

The target in this test is human FGFR1c together with human beta-Klotho (KLB) (human), P11362. Briefly: cell-based or functional assay.
Sequence of human FGFR1c together with human beta-Klotho (KLB) (human), P11362 (P11362 22-822, chain 1 of 2): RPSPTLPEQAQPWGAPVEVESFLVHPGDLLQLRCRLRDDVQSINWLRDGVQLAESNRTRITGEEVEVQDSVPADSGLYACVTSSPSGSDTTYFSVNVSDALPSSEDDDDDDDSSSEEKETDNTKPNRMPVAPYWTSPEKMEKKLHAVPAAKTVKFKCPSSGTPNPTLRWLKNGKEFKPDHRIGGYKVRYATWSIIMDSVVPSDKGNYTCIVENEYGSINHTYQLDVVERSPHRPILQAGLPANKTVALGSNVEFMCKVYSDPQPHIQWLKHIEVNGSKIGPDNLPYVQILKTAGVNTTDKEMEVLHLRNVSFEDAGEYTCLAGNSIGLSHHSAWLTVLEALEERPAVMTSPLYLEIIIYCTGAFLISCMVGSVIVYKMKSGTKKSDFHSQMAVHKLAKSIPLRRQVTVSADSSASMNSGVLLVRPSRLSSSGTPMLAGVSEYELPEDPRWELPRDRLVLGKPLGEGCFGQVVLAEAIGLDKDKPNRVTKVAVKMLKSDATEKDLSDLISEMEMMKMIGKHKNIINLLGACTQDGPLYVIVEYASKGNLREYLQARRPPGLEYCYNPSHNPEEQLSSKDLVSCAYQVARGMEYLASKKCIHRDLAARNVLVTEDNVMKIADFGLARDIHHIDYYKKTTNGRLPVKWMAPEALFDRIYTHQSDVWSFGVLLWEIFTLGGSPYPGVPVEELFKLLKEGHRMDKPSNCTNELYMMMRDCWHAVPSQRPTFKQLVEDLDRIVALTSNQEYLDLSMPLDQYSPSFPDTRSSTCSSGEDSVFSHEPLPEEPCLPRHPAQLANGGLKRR
Sequence of human FGFR1c together with human beta-Klotho (KLB) (human), P11362 (Q86Z14 whole entry, chain 2 of 2, further chain): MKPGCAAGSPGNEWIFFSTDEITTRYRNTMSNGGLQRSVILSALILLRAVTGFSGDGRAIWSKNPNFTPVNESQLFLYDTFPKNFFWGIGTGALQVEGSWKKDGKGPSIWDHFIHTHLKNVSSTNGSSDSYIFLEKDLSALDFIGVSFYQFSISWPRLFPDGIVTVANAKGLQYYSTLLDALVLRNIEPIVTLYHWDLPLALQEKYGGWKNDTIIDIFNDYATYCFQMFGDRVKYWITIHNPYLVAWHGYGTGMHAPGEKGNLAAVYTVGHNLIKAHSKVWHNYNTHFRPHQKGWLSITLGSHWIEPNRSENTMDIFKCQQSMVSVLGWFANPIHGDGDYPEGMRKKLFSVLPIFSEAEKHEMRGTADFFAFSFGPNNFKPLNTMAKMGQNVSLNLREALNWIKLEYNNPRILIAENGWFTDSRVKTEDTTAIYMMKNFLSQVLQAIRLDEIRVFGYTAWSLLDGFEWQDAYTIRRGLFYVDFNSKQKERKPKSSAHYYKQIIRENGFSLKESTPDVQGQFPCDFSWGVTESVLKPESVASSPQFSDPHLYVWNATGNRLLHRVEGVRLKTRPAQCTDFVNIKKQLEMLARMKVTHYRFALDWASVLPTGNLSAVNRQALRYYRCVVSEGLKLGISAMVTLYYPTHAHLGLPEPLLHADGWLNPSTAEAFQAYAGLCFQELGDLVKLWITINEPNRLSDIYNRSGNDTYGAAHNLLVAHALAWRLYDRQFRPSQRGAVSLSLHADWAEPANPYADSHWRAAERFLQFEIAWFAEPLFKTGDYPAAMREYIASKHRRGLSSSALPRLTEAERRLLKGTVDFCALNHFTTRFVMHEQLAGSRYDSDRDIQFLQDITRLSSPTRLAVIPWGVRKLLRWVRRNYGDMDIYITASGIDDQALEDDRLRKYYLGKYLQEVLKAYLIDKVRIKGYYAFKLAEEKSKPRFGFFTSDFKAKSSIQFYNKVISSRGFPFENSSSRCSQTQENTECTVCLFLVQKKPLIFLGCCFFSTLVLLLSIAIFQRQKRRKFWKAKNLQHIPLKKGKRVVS

B1: FGF21 wild type, Q9NSA1 29-209 (ligand)
chain: HPIPDSSPLLQPGGQVRQRYLYTDDAQQTEAHLEIREDGTVGGAADQSPESLLQLKALKPGVIQILGVKTSRFLCQRPDGALYGSLHFDPEACSFRELLLEDGYNVYQSEAHGLPLHLPGNKSPHRDPAPRGPARFLPLPGLPPAPPEPPGILAPQPPDVGSSDPLSMVGPSQGRSPSYAS
The molecule B1 came in with a pERK ICW EC50 of 0.135 nmol/L and a pFGFR ICW EC50 of 4.3 nmol/L.
